Measured values as given in the supplement of paper PMC10724198.
± gives the standard deviation of the averaged measurements.

System: Saccharomyces cerevisiae
Assay: protein stability index of tFT-peptide fusion (C-terminal peptide) (PSI (0-1 scale)); higher = more stable (slower turnover)
Conditions: temperature: 30 C
Experimental: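 MPS profiling in S. cerevisiae of the yeast C-terminome library: the last 12 aa of each annotated ORF are fused to the C-terminus of a sfGFP-mCherry timer, after a GGGS linker. Cells are FACS-sorted into 8 mCherry/sfGFP bins and deep-sequenced. PSI runs from 0 (unstable) to 1 (stable); wild type and das1Δ backgrounds, two technical replicates each.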

[1] = genetic background: das1 deletion

Sequence | protein stability index [1] | protein stability index (genetic background: wild type)
DLIESTFRSITQ [PAN3 C-terminal 12 aa] | 0.7194 ± 0.0067 | 0.7049 ± 0.0029
DLLDKDVLLISE [CDC7 C-terminal 12 aa] | 0.706 ± 0.0095 | 0.6734 ± 0.0014
DLSLVFGNHEST [HEM15 C-terminal 12 aa] | 0.694 ± 0.038 | 0.727 ± 0.02
DNEGSRKMLKIE [CIN8 C-terminal 12 aa] | 0.6613 ± 0.0033 | 0.662 ± 0.042
DNKPKLSDVEKD [GEA2 C-terminal 12 aa] | 0.698 ± 0.019 | 0.707 ± 0.017
DNQPWQLARCGR [HRT1 C-terminal 12 aa] | 0.698 ± 0.015 | 0.718 ± 0.014
DPEPPKEDPHDH [TCP1 C-terminal 12 aa] | 0.706 ± 0.0085 | 0.704 ± 0.051
DQAAKTFVIKKD [MDM38 C-terminal 12 aa] | 0.703 ± 0.019 | 0.668 ± 0.028
DQFQKVEKSIVK [RRF1 C-terminal 12 aa] | 0.69 ± 0.02 | 0.675 ± 0.061
DQLEDTSSHDEL [MPD2 C-terminal 12 aa] | 0.7476 ± 0.0003 | 0.7 ± 0.025
DSDADIEELLEE [PGA2 C-terminal 12 aa] | 0.696 ± 0.015 | 0.689 ± 0.046
DSEDDEDESDDE [SUI2 C-terminal 12 aa] | 0.689 ± 0.036 | 0.717 ± 0.094
DSFIPLQPKKKI [YML037C C-terminal 12 aa] | 0.684 ± 0.05 | 0.684 ± 0.015
DSVEMKFDKLNI [RBS1 C-terminal 12 aa] | 0.6821 ± 0.0029 | 0.748 ± 0.085
DTDGAKISIINN [FKH2 C-terminal 12 aa] | 0.7019 ± 0.0064 | 0.7033 ± 0.002
DVEDVLIDTLCN [PEX22 C-terminal 12 aa] | 0.723 ± 0.019 | 0.678 ± 0.03
DVEIDEDEEYFY [SPO12 C-terminal 12 aa] | 0.707 ± 0.0084 | 0.71 ± 0.01

Sequence | protein stability index [1] | protein stability index (genetic background: wild type)
DVYVLFYERVYD [UBP7 C-terminal 12 aa] | 0.682 ± 0.036 | 0.682 ± 0.03
DWLIDVIKEEQL [ARL1 C-terminal 12 aa] | 0.728 ± 0.051 | 0.695 ± 0.028
EADFRKRFPSKV [PRK1 C-terminal 12 aa] | 0.694 ± 0.0081 | 0.669 ± 0.021
EAGDSDILTTLA [RPL30 C-terminal 12 aa] | 0.706 ± 0.024 | 0.687 ± 0.0078
EAQLSSNDEPLP [YCR102W-A C-terminal 12 aa] | 0.6904 ± 0.004 | 0.721 ± 0.089
ECPSVPPTVRAY [SDH1 C-terminal 12 aa] | 0.528 ± 0.011 | 0.55 ± 0.0063
EDGDNWEVVGKK [TIF3 C-terminal 12 aa] | 0.7056 ± 0.0056 | 0.727 ± 0.012
EDHKVDGNKKED [VMA21 C-terminal 12 aa] | 0.68 ± 0.017 | 0.707 ± 0.011
EDIKQALKQATN [CYS3 C-terminal 12 aa] | 0.6902 ± 0.0052 | 0.654 ± 0.023
EEAREEFENIAL [SMI1 C-terminal 12 aa] | 0.679 ± 0.0096 | 0.645 ± 0.017
EEARQEKSGQES [CRZ1 C-terminal 12 aa] | 0.678 ± 0.048 | 0.659 ± 0.011
EECVKVQWESRT [TSR4 C-terminal 12 aa] | 0.681 ± 0.051 | 0.69407 ± 0.00052
EEIRRENFRVIE [KTR7 C-terminal 12 aa] | 0.713 ± 0.012 | 0.677 ± 0.029
EELQGNARALNN [SNN1 C-terminal 12 aa] | 0.6962 ± 0.0046 | 0.69 ± 0.019
EGEYADNVEPLA [PRY1 C-terminal 12 aa] | 0.7124 ± 0.0048 | 0.685 ± 0.02
EHIGAQNTGDGR [YER187W C-terminal 12 aa] | 0.6894 ± 0.0014 | 0.679 ± 0.033
EHTILSDSDETH [RIM15 C-terminal 12 aa] | 0.71 ± 0.012 | 0.717 ± 0.022
